Test results: the supplement of paper PMC7125110
± gives the standard error. This sample holds only a part of the variants without activity.

B1: glmS ribozyme (parent)
chain: AUAAAAGCGCCAGAACUACAGAAAUGUAGUUGACGAGGAGGAGGUUUAUCGAAUUUUCGGCGGAUGCCUCCAAA

Legend:
Settings in all cases: with glucosamine-6-phosphate
glucosamine-6-phosphate [1] = variants of: B1; assay: self-cleavage kobs at 40 uM GlcN6P; higher = faster cleavage; RNA array
In short: (§1)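 Tracking of barcoded ribozyme variants used a hybridised Cy3 probe at 37 °C, after in situ transcription by E. coli RNA polymerase on sequenced MiSeq chips. The flowed solution held 40 μM to 10 mM glucosamine-6-phosphate in HEPES/KCl/Mg(OAc)2 buffer, and imaging ran over ~14 h. kobs was taken from exponential decay fits of normalised per-tile medians, and kcat and KM from weighted Michaelis–Menten fits.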

glucosamine-6-phosphate [2] = variants of: B1; assay: self-cleavage kobs at 10000 uM GlcN6P; higher = faster cleavage; RNA array
In short: as §1

glucosamine-6-phosphate [3] = variants of: B1; assay: self-cleavage kobs at 160 uM GlcN6P; higher = faster cleavage; RNA array
In short: as §1

glucosamine-6-phosphate [4] = variants of: B1; assay: self-cleavage kobs at 640 uM GlcN6P; higher = faster cleavage; RNA array
In short: as §1

glucosamine-6-phosphate [5] = variants of: B1; assay: self-cleavage kobs at 2500 uM GlcN6P; higher = faster cleavage; RNA array
In short: as §1

Variant	self-cleavage kobs at 40 uM GlcN6P (glucosamine-6-phosphate [1]) [s⁻¹]	self-cleavage kobs at 10000 uM GlcN6P (glucosamine-6-phosphate [2]) [s⁻¹]	self-cleavage kobs at 160 uM GlcN6P (glucosamine-6-phosphate [3]) [s⁻¹]	self-cleavage kobs at 640 uM GlcN6P (glucosamine-6-phosphate [4]) [s⁻¹]	self-cleavage kobs at 2500 uM GlcN6P (glucosamine-6-phosphate [5]) [s⁻¹]
C11G A15C G29U A64U C70U	< 1e-05	< 1e-05	–	–	–
A33G G63A	< 1e-05	< 1e-05	< 1e-05	–	–
A15G A48U U55C	< 1e-05	0.000412 ± 8.4e-05	–	–	–
A15U G38U C50G	0.000125 ± 3.7e-05	–	–	–	–
C34A U47A	< 1e-05	–	–	–	–
U54C C67U	0.000255 ± 4.3e-05	0.0047 ± 0.0014	0.000586 ± 0.00012	0.000928 ± 0.00027	0.00157 ± 0.00051
G51C C58G	< 1e-05	–	–	–	–
G35C G41A	< 1e-05	< 1e-05	< 1e-05	< 1e-05	< 1e-05
A6C G62U	< 1e-05	< 1e-05	< 1e-05	–	< 1e-05
A33C C67U	< 1e-05	–	< 1e-05	< 1e-05	–
G41A U49C C67U	< 1e-05	–	–	–	–
U30C C34U	< 1e-05	–	–	< 1e-05	–
U31A G59A G62A	< 1e-05	–	–	–	–
A12U A39G	0.00377 ± 0.00072	0.105 ± 0.045	0.00677 ± 0.0016	0.0284 ± 0.013	0.0119 ± 0.0036
A12U A33C A42C	< 1e-05	–	–	–	–
C8G G62A	< 1e-05	–	–	–	< 1e-05
G7A G62C	< 1e-05	–	< 1e-05	< 1e-05	< 1e-05
G35A U65C	< 1e-05	< 1e-05	< 1e-05	< 1e-05	< 1e-05
C8G A33C C67G	< 1e-05	–	–	< 1e-05	–
A6U A42G G43C	< 1e-05	–	–	–	–
A6U A12C U56A G62A	< 1e-05	–	–	–	–
A36U G37U G40A A52C C58U	< 1e-05	–	–	–	–
G9U G37A C67U C71G	< 1e-05	–	–	–	–
C34G G37U A39C A53U	< 1e-05	–	–	–	–
G41C A42C	< 1e-05	–	< 1e-05	< 1e-05	< 1e-05
G44A C70G	< 1e-05	< 1e-05	< 1e-05	< 1e-05	< 1e-05
